Data published in patent publication US20110165143A1, “MODULATION OF CASPASES AND THERAPEUTICAL APPLICATIONS” (The Regents of the University of Colorado, a body corporate, priority 2010, published 2011).
Peptide text beside a SMILES is read from it. * marks the point of attachment. Cbz = O=C(OCc1ccccc1)*; CH2F = FC*

What was measured:
[1] = system: Fluc-labeled 4T1 cells; test: In vivo tumor growth from a small number of subcutaneously injected Fluc-labeled 4T1 cells; design: species or system mice; details: about 1000 subcutaneously injected Fluc-labeled 4T1 cells
Method: Growth of Fluc-labeled tumor cells in vivo was followed through non-invasive bioluminescence imaging using the IVIS200 instrument (Caliper Life Sciences, Hopkinton, Mass.). Mice to be imaged were injected with 150 mg/kg of D-luciferin (obtained from Caliper Life Sciences) intraperitoneally in 200 μl of PBS and then anesthetized with continuous flow of isofluorane. Imaging of the mice was carried out 10 minutes later. The time between injection and imaging was kept constant among different batches of mice.
Different approaches were used to establish tumor growth than traditionally adopted by other studies. In most of the studies, only a very small number of Fluc-labeled tumor cells (500-1000 cells each) were injected either alone or together with other unlabeled cells (either tumor cells or fibroblast cells) that were either irradiated or un-irradiated. Tumor growth in these cells was monitored through the quantification of bioluminescence signals emitted from labeled tumor cells by using the IVIS200 instrument following manufacturer's instructions.
As PGE2 had been implicated as a regulator of tumor growth, its effect on in vivo tumor growth was evaluated from a small number of Fluc-labeled 4T1 cells.

[2] = system: IMR90 cells; test: iPSC induction from IMR90 fibroblasts transduced with transcription factor cocktails; format: cell-based, human; details: for increase in frequency of OSNL-induced iPSC formation: IMR90 cells; for suppression / reduction in the frequency of iPSC induction: IMR90 cells stably transduced with the agent
Excerpt: The caspase reporters were transduced into human IMR90 fibroblasts via recombinant lentivirus vectors. After puromycin selection to ensure stable integration of the reporters, the iPSC reprogramming process was initiated by infecting caspase reporter-transduced IMR90 cells with recombinant lentivirus vectors carrying 4 transcription factors (Oct-4, Sox2, Nanog, and Lin28, or OSNL in abbreviation) that are known to induce iPSC formation. To avoid the use of myc, which is known to induce caspase activation and might confound the results, the OSNL protocol was chosen because it was shown not to be essential for iPSC induction.
In order to determine whether the observed caspases 3 and 8 activation had any functional relevance in iPSC induction, down-regulation of caspase activities in OSNL-transduced cells was attempted. In the initial experiment, CrmA was we stably transduced through lentiviral vectors, a cow pox virus protein known to suppress caspases 1 and 8 activities, into IMR90 cells. […] This was a very surprising result because logically one would expect that inhibiting caspase activation would lead to increased iPSC generation because of reduced cell death.
Because CrmA inhibits both caspases 1 and 8, more specific approaches were used to determine which caspase was involved. First, a siRNA-based knockdown approach was used. In this approach, lentiviral vectors encoding either caspase 1- or caspase 8-targeted shRNA was used to infect IMR90 cells. After selecting for cells with stable shRNA knockdown (as verified by western blot analysis), they were infected with OSNL lentivector cocktail.
To provide further proof that the cleavage activities of caspases 3 and 8 are necessary for iPSC formation, lentiviral vectors encoding dominant-negative forms of caspases 3 and 8 were constructed. The dominant negative form of human caspase 8 gene (casp8-DN) encodes a virtually identical protein as the wild type except a single amino acid change (i.e. C360A), which disables its catalytic proteolytic function. This dominant negative form was cloned into a recombinant lentiviral vector. Similarly, the dominant negative form of caspase 3 (Casp3-DN), which contains a single mutation (C163A) that disables its proteolytic function, was also cloned into a lentiviral vector.
When IMR90 cells stably transduced with a lentiviral vector encoding casp8-DN were infected with the OSNL lentiviral cocktail, no iPSC induction process was observed.

[3] = system: 4T1Fluc cells; test: Growth of 4T1Fluc tumor cells plated with lethally irradiated NIH3T3 cells, bioluminescence imaging; format: cell-based, mouse; details: about 1000 4T1Fluc cells plated with lethally irradiated NIH3T3 cells plus inhibitor (FIG. 4)
Method: FIG. 4 is a graph showing the effect of a caspase inhibitor z-VAD-fmk on 4T1Fluc tumor cell growth when plated with lethally irradiated NIH3T3 cells. About 1000 4T1Fluc cells were plated either alone, with non-irradiated NIH3T3 cells, or with lethally irradiated NIH3T3 cells plus a pan-caspase inhibitor z-VAD-fmk.
For imaging luciferase, the IVIS200 instrument from Caliper Life Sciences (Hopkinton, Mass.) was used. For tissue cultured cells, luciferase signal was imaged by adding PBS or colorless OptiMEM medium (Invitrogen, Carlsbad, Calif.) with D-luciferin (Caliper Life Sciences, Hopkinton, Mass.) at a concentration of 0.15 mg/ml. The cells were imaged at a set time point (e.g., 10 minutes) after the administration of D-luciferin. This allowed the signals from different samples to be compared. After images were taken, the manufacturer supplied software was used to process the images for quantitative data.
In order to rule out the possibility that caspase 3 mediates its growth-promoting function through a non-proteolytic mechanism, experiments were conducted using a pan-caspase inhibitor z-VAD-fmk to treat irradiated cells. […] A further, more definitive confirmation came from experiments where a dominant-negative version of caspase 3 was stably transduced into 4T1 cells. The dominant-negative caspase 3 (DN-casp3) differs with wild type caspase 3 in only one amino acid (C163A). […]

[4] = system: 4T1Fluc cells; test: Growth of Fluc-labeled tumor cells seeded onto dying feeder cells killed by cytotoxic treatment; format: cell-based, mouse; details: dying feeder cells killed by a treatment other than radiation

Molecule: CCCCC[C@H](O)/C=C/[C@H]1[C@H](O)CC(=O)[C@@H]1C/C=C\CCCC(=O)O [PGE2, prostaglandin E2]
- effect on in vivo tumor growth [1]: significantly stimulate tumor growth

Molecule: E7: human papilloma virus type 16 E7 protein, known to inhibit Rb function, co-transduced with OSNL
- increase in frequency of OSNL-induced iPSC formation [2]: ~5 fold

Molecule: COC(=O)C[C@H](NC(=O)[C@H](C)NC(=O)[C@@H](NC(=O)OCc1ccccc1)C(C)C)C(=O)CF [z-VAD-fmk] (Cbz-Val-Ala-Asp(OMe)-CH2F)
- effect on growth-promoting properties of irradiated cells towards 4T1Fluc tumor cell growth [3]: eliminated the growth-promoting properties of irradiated cells

Molecule: COc1cc([C@@H]2c3cc4c(cc3[C@@H](O[C@@H]3O[C@@H]5CO[C@@H](C)O[C@H]5[C@H](O)[C@H]3O)[C@H]3COC(=O)[C@H]23)OCO4)cc(OC)c1O [etoposide]
- growth-enhancing function conferred on dying cells by the cytotoxic treatment [4]: engender significant growth-enhancing functions to dying cells

B1: Rb: human Rb gene over-expressed from a lentiviral expression vector (protein, UniProt P06400 2-928, looked up)
Retinoblastoma-associated …: PPKTPRKTAATAAAAAAEPPAPPPPPPPEEDPEQDSGPEDLPLVRLEFEETEEPDFTALCQKLKIPDHVRERAWLTWEKVSSVDGVLGGYIQKKKELWGICIFIAAVDLDEMSFTFTELQKNIEISVHKFFNLLKEIDTSTKVDNAMSRLLKKYDVLFALFSKLERTCELIYLTQPSSSISTEINSALVLKVSWITFLLAKGEVLQMEDDLVISFQLMLCVLDYFIKLSPPMLLKEPYKTAVIPINGSPRTPRRGQNRSARIAKQLENDTRIIEVLCKEHECNIDEVKNVYFKNFIPFMNSLGLVTSNGLPEVENLSKRYEEIYLKNKDLDARLFLDHDKTLQTDSIDSFETQRTPRKSNLDEEVNVIPPHTPVRTVMNTIQQLMMILNSASDQPSENLISYFNNCTVNPKESILKRVKDIGYIFKEKFAKAVGQGCVEIGSQRYKLGVRLYYRVMESMLKSEEERLSIQNFSKLLNDNIFHMSLLACALEVVMATYSRSTSQNLDSGTDLSFPWILNVLNLKAFDFYKVIESFIKAEGNLTREMIKHLERCEHRIMESLAWLSDSPLFDLIKQSKDREGPTDHLESACPLNLPLQNNHTAADMYLSPVRSPKKKGSTTRVNSTANAETQATSAFQTQKPLKSTSLSLFYKKVYRLAYLRLNTLCERLLSEHPELEHIIWTLFQHTLQNEYELMRDRHLDQIMMCSMYGICKVKNIDLKFKIIVTAYKDLPHAVQETFKRVLIKEEEYDSIIVFYNSVFMQRLKTNILQYASTRPPTLSPIPHIPRSPYKFPSSPLRIPGGNIYISPLKSPYKISEGLPTPTKMTPRSRILVSIGESFGTSEKFQKINQMVCNSDRVLKRSAEGSNPPKPLKKLRFDIEGSDEADGSKHLPGESKFQQKLAEMTSTRTRMQKQKMNDSMDTSNKEEK
modifications: lentiviral expression
notes: human Rb gene over-expressed from a lentiviral expression vector
- suppression / reduction in the frequency of iPSC induction ([2]; OSNL lentiviral cocktail): about 50%

B2: shRNA targeted to Rb: lentiviral vector-encoded shRNA against human Rb, Open Biosystems (nucleic acid)
DNA: TGCTGTTGACAGTGAGCGCGGATATAGGATACATCTTTAATAGTGAAGCCACAGATGTATTAAAGATGTATCCTATATCCTTGCCTACTGCCTCGGA
modifications: the letters are possibly those of the target site
notes: lentiviral vector-encoded shRNA against human Rb, Open Biosystems
- increase in frequency of OSNL-induced iPSC formation [2]: almost doubled

B3: casp8-DN: dominant negative form of human caspase 8 (C360A), lentiviral vector encoded (protein, UniProt Q14790 1-479, looked up, variant C360A)
chain: MDFSRNLYDIGEQLDSEDLASLKFLSLDYIPQRKQEPIKDALMLFQRLQEKRMLEESNLSFLKELLFRINRLDLLITYLNTRKEEMERELQTPGRAQISAYRVMLYQISEEVSRSELRSFKFLLQEEISKCKLDDDMNLLDIFIEMEKRVILGEGKLDILKRVCAQINKSLLKIINDYEEFSKERSSSLEGSPDEFSNGEELCGVMTISDSPREQDSESQTLDKVYQMKSKPRGYCLIINNHNFAKAREKVPKLHSIRDRNGTHLDAGALTTTFEELHFEIKPHDDCTVEQIYEILKIYQLMDHSNMDCFICCILSHGDKGIIYGTDGQEAPIYELTSQFTGLKCPSLAGKPKVFFIQAAQGDNYQKGIPVETDSEEQPYLEMDLSSPQTRYIPDEADFLLGMATVNNCVSYRNPAEGTWYIQSLCQSLRERCPRGDDILTILTEVNYEVSNKDDKKNMGKQMPQPTFTLRKKLVFPSD
modifications: full-length lentiviral vector encoded
notes: dominant negative form of human caspase 8 (C360A), lentiviral vector encoded
- iPSC clones observed ([2]; OSNL lentiviral cocktail, after 25 days of culture, wild type IMR90 around 550 clones/5×10^5 cells): No iPSC clones were observed
- suppression of iPSC induction ([2]; transduced together with OSKM): over 95%

B4: dominant negative caspase 3 (C163A): dominant negative form of caspase 3 with single mutation C163A, lentiviral vector encoded (protein, UniProt P42574 1-277, looked up, variant C163A)
chain: MENTENSVDSKSIKNLEPKIIHGSESMDSGISLDNSYKMDYPEMGLCIIINNKNFHKSTGMTSRSGTDVDAANLRETFRNLKYEVRNKNDLTREEIVELMRDVSKEDHSKRSSFVCVLLSHGEEGIIFGTNGPVDLKKITNFFRGDRCRSLTGKPKLFIIQAARGTELDCGIETDSGVDDDMACHKIPVEADFLYAYSTAPGYYSWRNSKDGSWFIQSLCAMLKQYADKLEFMHILTRVNRKVATEFESFSFDATFHAKKQIPCIVSMLTKELYFYH
modifications: full-length lentiviral vector encoded
notes: dominant negative form of caspase 3 with single mutation C163A, lentiviral vector encoded
- suppression / reduction in the frequency of iPSC induction ([2]; OSNL lentiviral cocktail): about 80%

B5: shRNA targeted to caspase 1: lentiviral vector-encoded shRNA against human caspase 1, Open Biosystems (nucleic acid)
DNA: TGCTGTTGACAGTGAGCGCGCAATCTTTAACATGTTGAATTAGTGAAGCCACAGATGTAATTCAACATGTTAAAGATTGCATGCCTACTGCCTCGGA
modifications: the letters are possibly those of the target site
notes: lentiviral vector-encoded shRNA against human caspase 1, Open Biosystems
- suppression / reduction in the frequency of iPSC induction ([2]; OSNL lentiviral cocktail): no significant effect
